From publication PMC11425952, “Characterization of Mycobacterium smegmatis Glutaminase-Free Asparaginase (MSMEG_3173)” (ACS Omega, 2024)

System: NC(=O)C[C@H](N)C(=O)O
Assay: purified protein
Format: biochemical, Mycolicibacterium smegmatis
Conditions: 50 mM Tris-HCl pH 8.6, 37 °C (standard assay), 0.05-4.0 mM L-Asn

**Q.** Which results are given for “MsA (Mycobacterium smegmatis L-asparaginase, MSMEG_3173) (Mycolicibacterium smegmatis MC2 155)”?
**A.** Km: 1403 ± 240 µM; kcat: 708.1 ± 25.05 s⁻¹
